# Paper PMC2196876
# Biological target: epitope-tagged full-length hVam6p (HA–hVam6p and Myc–hVam6p) (human)
# Assay: sucrose gradient sedimentation velocity with immunoprecipitation of fractions
substance,measurement,value
epitope-tagged full-length hVam6p (HA–hVam6p and Myc–hVam6p) (natural protein),stoichiometry N,3
